Laboratory results taken from the DeepSol protein solubility set.

experiment: soluble on expression in E. coli; label from the status in PepcDB or PDB records

Sequence | soluble on expression in E. coli
MTQPSAPAPQIAIDSHDDKAWRDTLLKVAAILCERQPDSPQGYRLRRHALWQSITSTPQAESDGRTPLAAVSADMVADYQSRLASADMALWQQVEKSVLLAPYWLDGHCLSAQTALRLGYKQVADTIRDEVIRFLERLPQLTGLLFNDRTPFLSEQTKQWLAASPDGKVAPVAQIGEESQAARACFAGQGLEAALRYLDMLPEGDPRDQFHRQYLAAQLTEEAGLIQLAQQQYRMLLMIGSQMMVSDWEPSLLTQLEQKFTAEQ | soluble
MAHHHHHHMEESDEDDNIQVIVFGNSSEAKFDDFYREEDIKKEEIQDNINDAMVPNESNEQDKAQNEDVDLESKVQNATKENKVFMKYDYTHEKPWSNHGDKSMWFNYNFDEHTFKEWVQKHIDRKLEKQQNYQIENTDNYFFEDTFKGNMMNTSSVNNQSMQGIKSFPSKNMNPFNTSKLIEHNGSPNYTSNKMDKIKNNNNNNNNKNNSNSNNKNNSNNKNNSNSNNRSDINQTTTNTNNDLKQFQNLINFLKQNN | not soluble
MEDDPVWRFDDRDVILYNIALGATTKQLKYVYENDSDFQVIPTFGHLITFNSGKSQNSFAKLLRNFNPMLLLHGEHYLKVHSWPPPTEGEIKTTFEPIATTPKGTNVVIVHGSKSVDNKSGELIYSNEATYFIRNCQADNKVYADRPAFATNQFLAPKRAPDYQVDVPVSEDLAALYRLSGDRNPLHIDPNFAKGAKFPKPILHGMCTYGLSAKALIDKFGMFNEIKARFTGIVFPGETLRVLAWKESDDTIVFQTHVVDRGTIAINNAAIKLVGDKAKI | soluble
MRPPRPPRPPSPQRSAELRRRFAQEARSERPDLATLCLLVGAEADGTLDEAGLDAAQVELDRLAGELPFRPGTPRAWAVALRDLLGERYGFHGVAADYQRLESSLLHEVVRRRRGLPILLSVVWLEVARRAGAPVYGVALPGHFVVGFGGESAAASGPGSAPLGERVLVDPYDGGRLLSGTDAEALVAGATGAELRASMLEPAAPLDVVARVLNNIRAWAAARPEQSAVGLWAVELALLLPAHAARLRYERAVLLVQRGEFAAGAGELEAYAEVVEAVDEAVAEEVRGEARTARAMLN | not soluble
VKPPHGFQKKMKLEVVDKRNPMFIRVATVADTDDHRVKVHFDGWNNCYDYWIDADSPDIHPVGWCSKTGHPLQPPLSPLELMEASEHGGCSTPG | soluble
GSHMRSRRVDVMDVMNRLILAMDLMNRDDALRVTGEVREYIDTVKIGYPLVLSEGMDIIAEFRKRFGCRIIAAFKVADIPETNEKICRATFKAGADAIIVHGFPGADSVRACLNVAEEMGREVFLLTEMSHPGAEMFIQGAADEIARMGVDLGVKNYVGPSTRPERLSRLREIIGQDSFLISPGVGAQGGDPGETLRFADAIIVGRSIYLADNPAAAAAGIIESIKDLRIPEDPAANKARKEAELAAATAEQ | soluble
MGSSHHHHHHSSGLVPRGSHMEAPAAVVTGAAKRIGRAIAVKLHQTGYRVVIHYHNSAEAAVSLADELNKERSNTAVVCQADLTNSNVLPASCEEIINSCFRAFGRCDVLVNNASAFYPTPLVQGDHEDNSNGKTVETQVAELIGTNAIAPFLLTMSFAQRQKGTNPNCTSSNLSIVNLCDAMVDQPCMAFSLYNMGKHALVGLTQSAALELAPYGIRVNGVAPGVSLLPVAMGEEEKDKWRRKVPLGRREASAEQIADAVIFLVSGSAQYITGSIIKVDGGLSLVHA | soluble
MENKLKLVVVGDTYTGKTSLLVAYTKKQFLDNYTTTVFDNWAVSVHIDNKNYAVNLFDTAGQGNYEQIRCLSYPHANVFLVCFSMIDRKTLESCRSTWIPEIRKYAGDNVPIMLVGTKNDLVDDADSRNTVTEDYAKRVAHEIGCHKFYSCSALTHKGLKRVFDESFLAAVGVKLEEETPNPCCTIL | not soluble
MAYRDQPLGELALSIPRASALFRQYDMDYCCGGKQTLARAAARHDVDIDIIEAQLAQLAEQPIEKDWRAVPLADIIDHIVVRYHDRHREQLPELILQATKVERVHADKPNVPRGLTKYLTALHEELSSHMMKEEQILFPMIKQGMGRQATGPISVMESEHDEAGELVDVIKHVTKNVTPPPEACTTWKAMYNGINEMIDDLMEHISLENNVLFPRALAGE | not soluble
DEPILSFSPKTYSFRQDGRIKEVSVFTYHKKYNPDKHYIYVVRILREGQIEPSFVFRTFDEFQELHNKLSIIFPLWKLPGFPNRMVLGRTHIKDVAAKRKIELNSYLQSLMNASTDVAECDLVCTFFHPLLRDEKAEGIA | soluble
MIKISYSPYTLKPVQSLNAATAATAREGVLLKVEWNDGLYGFADLHPWPELGDLSLEEQLSDLRMGRMTTQIEQSIWLARRDALLRKEKKHVFDGGEKIKNNYLLSHFQDLKPGFLDGLKNEGYNTVKVKMGRDLQKEADMLTHIAASGMRMRLDFNALGSWQTFEKFMVNLPLTVRPLIEYVEDPFPFDFHAWGEARKLAKIALDNQYDKVPWGKIASAPFDVIVIKPAKTDVDKAVAQCQKWNLKLAVTSYMDHPVGVVHAVGVAMELKDKYGDMILESGCLTHRLYQMDSFAAELSTQGPYLLKNKGTGVGFDKLLEALTWYQLKVR | soluble
MSLNLATLQSQFAKALHYQALGEDCDIASDEFTADERIQIYRNNFIVSLSEVLSATYPMVEALLGEECFEQIARQHVLSYPLKEGNVVHYGEGFQDTIMQFSQVIAQAPYSPEVARFEWHIDLARQAQYEQSNAAELKPLALLGEVSEEQQPALVLHLKKGCRSFDSNYAVFDLFSAIQTGQFEQLNINQLQQGVISIQANGEALCHALDADVFQLLQCLEQKQSLSEIPEVLLAHLNRIMALDIVDGFTLQSIEGHHHHHH | soluble
MGHHHHHHSHMSFTTRSTFSTNYRSLGSVQAPSYGARPVSSAASVYAGAGGSGSRISVSRSTSFRGGMGSGGLATGIAGGLAGMGGIQNEKETMQSLNDRLASYLDRVRSLETENRRLESKIREHLEKKGPQVRDWSHYFKIIEDLRAQIFANTVDNARIVLQIDNARLAADDFRVKYETELAMRQSVENDIHGLRKVIDDTNITRLQLETEIEALKEELLFMKKNHEEEVKGLQAQIASSGLTVEVDAPKSQDLAKIMADIRAQYDELARKNREELDKYWSQQIEESTTVVTTQSAEVGAAETTLTELRRTVQSLEIDLDSMRNLKASLENSLREVEARYALQMEQLNGILLHLESELAQTRAEGQRQAQEYEALLNIKVKLEAEIATYRRLLEDGEDFNLG | soluble
MTLRSQDPRIAIIGGGIAGATAAVHLGELGLNVVLMEKSAGLVSGPPICHLHAGGNLYREISEQQCIDLLEQSIETVRLYPHTLNVRPTLIAIPQSDPGQPEEILPRLVTIQNAYRKLVEQDAANQVLGAVDNYYRLYQREELERLAQQQQANPPQSDDEWVIPFAQHADLAQLKYPVVLVQEYGWSVFRLAASVDLTLEALPNCQVMLRTELVDATFQDNQWRLTYLDAQGERHTQTVDYLVNACGFETGRVDDMARHHRQRLVEFKAAYVTHWPACHQWWPEVIFHGPRGSEDGMAQLTPYADGTFQLHGMTESITLFADGLVASTPTSAQPQLPLYLQHKIERGWPMSAQQERTVRAIQHMSRFVPSFDNAEFAGKPLFGAQQIPGDDVTLRAADVSFEANQYARLEVVKGSSALRAARQLVAVWQLKPDAGELSIETEHPCSMAFTAQQVEQQAIRLCHARGYPAALAKVYGLLEHHHHHH | soluble
MSHFFADHDAPLSMLSVKTEYFPQLTDKEQKYAHFMSKASHAGSRVVMRQVSHESEPIFDLILAIHSKLNGKYPEDDITQKQQTGLYLEYVSQFLSNLGNFKSFGDTKFIPRCEVKFFKQLLELAKINPSSSPLTLSPVDVNHEFTSHHLFSTINELIDIGIYHVEEKAALLGFPSQGYTSAYYLGLPVTPEDMALLKEQLFAELAILPENTRINKVGENSFQIWVASENVKNQITETYPSGQITLSNAVTKVEFIFGDHSREMRLVASYLKEAQKFAANDTQKAMLQEYINHFVTGSSQAHKEAQKLWVKDISPVIETNIGFIETYREPSGIIGEFESLVAIQNKERTAKFSSLVNNAEEFISLLPWSKDYEKPIFNPPDFTSLEVLTFTGSGIPAGINIPNYDDVRLKIGFKNVSLGNILSAAAKSSSKHPPSFISQEDRPIFEKYQSDSFEVQVDIHELLGHGSGKLLTEFTDGFNFDKENPPLGLDGKPVSTYYKVGETWGSKFGQLAGPFEECRAEVIAMFLLTNKKILDIFGFHDVESQDKVIYAGYLQMARAGLLALEYWNPKTGKWGQPHMQARFSIMKTFMKHSTDKNFLKLEMNSTNDDFAIKLDKSLIKTAGHECVKDYLKHLHVYKCSGDVEQGSKYFIDRSTVTPDLASLRDIVLSKRLPRRQFIQSNSYIDDNNKVTLKEYDETPQGMLQSFLDREL | soluble
